Results published in the supplement of paper PMC10567573.

B1: ESR2 (parent)
chain: KSCQACRLRKCYEVGMVKCGSRRE

Variants of: B1
Assay: protein stability index of a GFP-peptide fusion (GPS, HEK-293T) (PSI 1-6); higher = more stable
Conditions: c terminus: a fixed tail appended
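Note: lentivirally expressed fusions sorted by FACS into six bins by GFP to DsRed ratio, PSI derived from sequencing read proportions per bin multiplied by bin number.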

First: S2Y
Second: S2H
The protein stability index of the first is higher: 2.94 for the first, 2.23 for the second.

Compared with S2Q, S2W is lower in protein stability index: 1.96 for the first, 1.91 for the second.

Compared with S2G, S2M is lower in protein stability index: 1.96 for the first, 1.78 for the second.

First: S2T
Second: A5V
The protein stability index of the first is lower: 1.92 for the first, 1.93 for the second.

Compared with A5D, A5W is lower in protein stability index: 2.09 for the first, 1.77 for the second.

First: A5K
Second: V14D
The protein stability index of the first is higher: 2.48 for the first, 2.17 for the second.

Going from V14Y to V14C, the protein stability index rises from 1.7 to 2.17.

Going from V14S to V14A, the protein stability index falls from 2.52 to 2.1.

First: V14L
Second: V14N
The protein stability index of the first is lower: 1.49 for the first, 2.34 for the second.

Compared with V14P, E24A is higher in protein stability index: 1.62 for the first, 2.44 for the second.

Compared with E24F, E24N is higher in protein stability index: 1.91 for the first, 2.02 for the second.

Going from E24P to E24K, the protein stability index falls from 2.74 to 2.45.

Going from E24I to G20R, the protein stability index rises from 1.73 to 2.49.

First: G20D
Second: G20P
The protein stability index of the first is higher: 1.87 for the first, 1.84 for the second.

Compared with G20Q, G20T is higher in protein stability index: 1.73 for the first, 2.19 for the second.

Compared with G20F, G20V is lower in protein stability index: 2.01 for the first, 1.87 for the second.

Going from G20E to G20A, the protein stability index falls from 2.41 to 1.91.

First: L8M
Second: L8F
The protein stability index of the first is higher: 2.24 for the first, 2.21 for the second.

Going from L8C to L8P, the protein stability index falls from 2.61 to 2.27.

Compared with L8D, L8I is higher in protein stability index: 1.61 for the first, 1.64 for the second.

Going from L8K to L8Q, the protein stability index falls from 2.66 to 1.84.

First: R22V
Second: R22K
The protein stability index of the first is lower: 1.97 for the first, 2.35 for the second.

Compared with R22C, R22M is lower in protein stability index: 3.45 for the first, 2.21 for the second.

First: R23T
Second: R23M
The protein stability index of the first is lower: 1.85 for the first, 1.98 for the second.

Going from R23E to R23D, the protein stability index rises from 2.33 to 2.48.

First: R23L
Second: R23S
The protein stability index of the first is lower: 1.58 for the first, 2.25 for the second.

Going from R23C to K1D, the protein stability index falls from 2.39 to 1.75.

Compared with K1M, K1Q is higher in protein stability index: 1.87 for the first, 2.42 for the second.

Going from E13C to E13D, the protein stability index falls from 2.46 to 1.88.

First: E13I
Second: E13S
The protein stability index of the first is lower: 2.03 for the first, 2.42 for the second.

E13N and E13A are the same in protein stability index: 1.93 for the first, 1.93 for the second.

Compared with E13K, V17N is higher in protein stability index: 1.99 for the first, 3.53 for the second.

Going from V17W to V17K, the protein stability index rises from 1.86 to 2.54.

First: V17L
Second: V17E
The protein stability index of the first is lower: 1.61 for the first, 1.89 for the second.

Compared with V17C, V17H is lower in protein stability index: 3.72 for the first, 2.97 for the second.

First: R7N
Second: R7T
The protein stability index of the first is lower: 1.77 for the first, 2.46 for the second.

Going from R7K to R7I, the protein stability index falls from 2.03 to 1.64.

Going from R7G to R7E, the protein stability index rises from 2 to 2.69.

First: R7W
Second: G15R
The protein stability index of the first is lower: 1.89 for the first, 1.91 for the second.

First: G15E
Second: G15T
The protein stability index of the first is lower: 1.38 for the first, 2.03 for the second.

Compared with G15F, G15V is lower in protein stability index: 2.41 for the first, 1.25 for the second.

Compared with G15K, G15A is lower in protein stability index: 2.18 for the first, 1.69 for the second.

Going from M16I to M16R, the protein stability index rises from 1.13 to 2.4.

Compared with M16P, M16H is higher in protein stability index: 1.96 for the first, 2.82 for the second.

Compared with M16C, M16A is lower in protein stability index: 3.01 for the first, 1.76 for the second.

Compared with M16L, M16S is higher in protein stability index: 2.22 for the first, 2.44 for the second.

Going from M16D to M16K, the protein stability index rises from 1.66 to 2.67.

Compared with R9C, R9K is higher in protein stability index: 1.61 for the first, 2.04 for the second.

Going from R9G to R9A, the protein stability index falls from 1.95 to 1.1.

Compared with R9S, R9Q is higher in protein stability index: 1.8 for the first, 1.99 for the second.

Going from R9L to R9N, the protein stability index falls from 2.14 to 1.88.

Compared with K18H, K18Y is lower in protein stability index: 2.33 for the first, 1.49 for the second.

Going from K18E to K18I, the protein stability index falls from 2.09 to 1.49.

First: K18D
Second: K18R
The protein stability index of the first is lower: 2.2 for the first, 2.31 for the second.

First: K18L
Second: K18M
The protein stability index of the first is higher: 1.73 for the first, 1.67 for the second.

Compared with K18A, K18N is higher in protein stability index: 1.89 for the first, 2.39 for the second.

Going from K18W to Q4D, the protein stability index rises from 1.35 to 1.81.

Going from Q4K to Q4Y, the protein stability index rises from 1.84 to 1.9.

Going from Q4T to Q4W, the protein stability index falls from 2.17 to 1.39.

Compared with Q4N, Q4H is lower in protein stability index: 1.86 for the first, 1.83 for the second.

Going from Q4G to K10Y, the protein stability index rises from 1.58 to 1.79.

Going from K10Q to K10A, the protein stability index rises from 1.68 to 1.81.

First: K10W
Second: K10E
The protein stability index of the first is lower: 1.74 for the first, 2.12 for the second.

First: K10T
Second: K10F
The protein stability index of the first is higher: 2.23 for the first, 1.26 for the second.

First: K10R
Second: C6I
The protein stability index of the first is lower: 1.56 for the first, 2.6 for the second.

Compared with C6T, C6Q is higher in protein stability index: 2.62 for the first, 2.94 for the second.

Compared with C6E, C6K is higher in protein stability index: 2.38 for the first, 3.22 for the second.

First: C6D
Second: C6R
The protein stability index of the first is lower: 2.73 for the first, 3.05 for the second.

Going from S21K to S21V, the protein stability index falls from 2.39 to 1.56.

Compared with S21Q, S21D is higher in protein stability index: 1.32 for the first, 1.75 for the second.

Going from S21W to S21Y, the protein stability index rises from 1.5 to 1.76.

First: S21F
Second: C19V
The protein stability index of the first is lower: 1.5 for the first, 1.89 for the second.

Compared with C19P, C19A is lower in protein stability index: 2.28 for the first, 2.18 for the second.

First: C19I
Second: C19D
The protein stability index of the first is lower: 1.4 for the first, 2.51 for the second.

Compared with C19H, C19F is lower in protein stability index: 1.94 for the first, 1.86 for the second.

First: C11G
Second: C11N
The protein stability index of the first is higher: 2.4 for the first, 1.78 for the second.

Going from C11S to C11Q, the protein stability index rises from 1.68 to 1.79.

Going from C11R to Y12K, the protein stability index falls from 2.5 to 2.11.

First: Y12Q
Second: Y12L
The protein stability index of the first is higher: 2.06 for the first, 1.89 for the second.

First: Y12E
Second: Y12F
The protein stability index of the first is higher: 2.85 for the first, 1.77 for the second.

First: Y12H
Second: Y12P
The protein stability index of the first is lower: 2.03 for the first, 2.13 for the second.

First: Y12N
Second: C3E
The protein stability index of the first is lower: 2.43 for the first, 3.21 for the second.

Going from C3N to C3W, the protein stability index falls from 2.71 to 1.85.

For C3A, the protein stability index was 2.66.
